What all share (format): biochemical
Series [1] in a line: Reactions on alkanes, total turnovers (Table 18): butane. As to conditions: for % rel. act. / TTN: butane (4 C atoms); for % rel. act.: TTN normalized to the highest value of the variant's series; for TTN: total turnovers, standardized reaction conditions. As for the experimental part:
(§1) Reactions on alkanes. Reactions with alkanes from pentane to decane were carried out at 3 mL-scale using 100 mM KPi pH 8.0 buffer containing 2% ethanol (to allow alkane solubilization) and purified protein. 2.5 mL KPi buffer were added with 60 μL of 90 mM alkane solution in ethanol (final conc.=1.8 mM), 150 μL enzyme solution at 1 μM (final conc.=50 nM), and 300 μL NADPH regeneration solution (100 units/mL isocitrate dehydrogenase, 70 mg/mL isocitrate, 1.5 mg/ml NADP^+). Vials were sealed and stirred for 24 hours at 4° C. 1 mL-aliquot of the reaction was removed, added with 10 μl internal standard (25 mM 1-bromohexane in ethanol), and extracted with 200 μl chloroform (30 sec vortexing, 1 min centrifugation at 10000 g). The organic phase was removed and analyzed by gas chromatography. Reactions with ethane, propane, and butane were carried out as described for longer alkanes with the only difference that alkane-saturated KPi buffer was used. Propane reactions with variants from HL5 and L9 libraries were performed on 1 mL-scale reaction using 20 nM enzyme to reduce oxygen limitation. Propane and butane reactions were analyzed by direct injection of reaction solution on the GC using 1-pentanol as internal standard. Ethane reaction products were functionalized (see below) and analyzed by GC using 1-butanol as internal standard. All measurements were performed in triplicate.
(§2) Products from alkane reactions were identified and quantified by gas chromatography using authentic standards and calibration curves with internal standards. For the reactions with alkanes from pentane to decane, GC analyses were carried out using a Shimadzu GC-17A gas chromatograph, Agilent HP5 column (30 m×0.32 mm×0.1 μm film), 1 μL injection, FID detector, and the following separation program: 250° C. inlet, 250° C. detector, 50° C. oven for 3 min, 5° C./min gradient to 100° C., 25° C./min gradient to 230° C., and 230° C. for 3 min. For butane and propane (TTN) reactions, GC analyses were carried out using a Hewlett-Packard 5890 Series II Plus gas chromatograph, Supelco SPB-1 column (60 m×0.52 mm×0.5 μm film), 0.5 μL injection, FID detector, and the following separation program: 250° C. inlet, 275° C. detector, 80° C. oven for 2 min, 10° C./min gradient to 110° C., 25° C./min gradient to 275° C., and 275° C. for 2.5 min. For ethane and propane (rate) reactions, analysis of reaction mixtures was carried out by derivatization to alkyl nitrites followed by GC-ECD analysis. For laurate, reaction product analysis was carried out by derivatization with N-methyl-N-trimethylsilylheptafluorobutyramide followed by extraction with hexane. Organic solutions were analyzed by FID-GC.
(§3) TTNs for each variant-substrate pair were determined using standardized reaction conditions (identical enzyme and substrate concentration, incubation time, cofactor regeneration system) (Table 18). TTN values were used to assess performance because TTN is a cumulative measure of both catalytic and coupling efficiency and because mutants were selected based on improvement in this property. To facilitate comparison among the variants, TTNs were normalized to the highest value in the series (MTN=Maximal Turnover Number) and plotted for the increasing-sized substrates (FIG. 38). A gradual shift of the enzyme's substrate preference during laboratory evolution is evident from these profiles. The marginal activity of wild-type BM3 on these substrates (MTN=150) is restricted to the long-chain alkanes, where it is a promiscuous function of BM3's high C12-C20 fatty acid hydroxylase activity. In the first evolutionary intermediates, substrate preference centers on medium-chain alkanes […], reflecting their selection for activity on octane. In 35E11, selected for activity on propane, preference still centers on C6-C8 alkanes but now extends towards the shorter ones, including propane. Propane activity becomes prevalent with the transition from variant ETS8 to 19A12. […]

Series [2] in a line: Reactions on alkanes, total turnovers (Table 18): hexane. As to conditions: hexane (6 C atoms); for % rel. act.: TTN normalized to the highest value of the variant's series; for TTN: total turnovers, standardized reaction conditions. How it is done: as §1, §2, §3
Series [3] can be described thus: Kinetic constants for n-alkanes: heptane. The note with it: N.m = not measurable. As for the experimental part: Rate measurements. Initial rates of product formation were determined at 25° C. in 100 mM KPi pH 8.0 buffer using purified protein (100 nM) and a substrate concentration of 1.6 mM. In a 5 mL-vial, 20 μL of alkane solution (in ethanol) were dissolved in 400 μL KPi buffer, to which 500 μL enzyme solution at 100-200 nM was added. Reaction was initiated by adding 100 μL of 5 mM NADPH solution, followed by stirring at 300 rpm for 1 minute, and quenched by adding 200 μL chloroform and stirring at 800 rpm for 10 sec. Solutions were transferred to an Eppendorf tube, to which internal standard (10 μL 25 mM 1-bromohexane in ethanol) was added. Tubes were vortexed for 10 sec and centrifuged for 30 sec at 10,000 g. Organic phase was removed and analyzed by GC. For propane, reactions were carried out in a 5 mL-scale using 100-400 nM purified enzyme, propane-saturated buffer (propane concentration≈1.6 mM) and a final NADPH concentration of 500 μM. Reactions were stopped by addition of 200 μL H2SO4 conc. and analyzed by derivatization to alkyl nitrites followed by GC-ECD analysis as described below.
as §2
To further investigate the evolution of substrate specificity, kinetic constants for the C5 to C8 alkanes were determined from Michaelis-Menten plots (Table 19). The preference of 35E11 and its evolutionary predecessors for medium-chain alkanes is indicated by their high C8/C5 specificities ((kcat/Km)8/(kcat/Km)5˜100), where Km appears to be the major contributing factor. C8/C5 specificity decreases to ˜5 in the immediate precursors of P450PMO and then switches altogether to the smaller alkane, becoming 0.4 in P450PMO. In P450PMO, catalytic efficiency is highest on propane and decreases along the alkane series, driven by decreasing kcat.

Residue numbers refer to the chain shown, from its start. Names and notes keep the numbering of the source. Where two headings read alike, the source gives them in different places.

What is called Km is the substrate concentration at which the rate is half of its maximum. What is called kcat is the maximal rate divided by the concentration of active sites.

B1: Wild-type BM-3: wild-type cytochrome P450 BM-3 from Bacillus megaterium, SEQ ID NO:1 (protein, listed as Bacillus megaterium)
chain: TIKEMPQPKTFGELKNLPLLNTDKPVQALMKIADELGEIFKFEAPGRVTRYLSSQRLIKEACDESRFDKNLSQALKFVRDFAGDGLFTSWTHEKNWKKAHNILLPSFSQQAMKGYHAMMVDIAVQLVQKWERLNADEHIEVPEDMTRLTLDTIGLCGFNYRFNSFYRDQPHPFITSMVRALDEAMNKLQRANPDDPAYDENKRQFQEDIKVMNDLVDKIIADRKASGEQSDDLLTHMLNGKDPETGEPLDDENIRYQIITFLIAGHETTSGLLSFALYFLVKNPHVLQKAAEEAARVLVDPVPSYKQVKQLKYVGMVLNEALRLWPTAPAFSLYAKEDTVLGGEYPLEKGDELMVLIPQLHRDKTIWGDDVEEFRPERFENPSAIPQHAFKPFGNGQRACIGQQFALHEATLVLGMMLKHFDFEDHTNYELDIKETLTLKPEGFVVKAKSKKIPLGGIPSPSTEQSAKKVRKKAENAHNTPLLVLYGSNMGTAEGTARDLADIAMSKGFAPQVATLDSHAGNLPREGAVLIVTASYNGHPPDNAKQFVDWLDQASADEVKGVRYSVFGCGDKNWATTYQKVPAFIDETLAAKGAENIADRGEADASDDFEGTYEEWREHMWSDVAAYFNLDIENSEDNKSTLSLQFVDSAADMPLAKMHGAFSTNVVASKELQQPGSARSTRHLEIELPKEASYQEGDHLGVIPRNYEGIVNRVTARFGLDASQQIRLEAEEEKLAHLPLAKTVSVEELLQYVELQDPVTRTQLRAMAAKTVCPPHKVELEALLEKQAYKEQVLAKRLTMLELLEKYPACEMKFSEFIALLPSIRPRYYSISSSPRVDEKQASITVSVVSGEAWSGYGEYKGIASNYLAELQEGDTITCFISTPQSEFTLPKDPETPLIMVGPGTGVAPFRGFVQARKQLKEQGQSLGEAHLYFGCRSPHEDYLYQEELENAQSEGIITLHTAFSRMPNQPKTYVQHVMEQDGKKLIELLDQGAHFYICGDGSQMAPAVEATLMKSYADVHQVSEADARLWLQQLEEKGRYAKDVWAG
B1: in series [1], the “% rel. act.” value came to 0.0% and the TTN was determined as 0. Also, in series [2], the “% rel. act.” value was found to be 6.3% and the TTN turned out to be 10 ± 4. In series [3], the Michaelis-Menten constant (Km) entry is “n.m” and the kcat result is “n.m”.

B2: 35-E11: P450 BM-3 variant, SEQ ID NO:7: 53-5H substitutions plus E464G and I710T (protein)
chain: TIKEMPQPKTFGELKNLPLLNTDKPVQALMKIADELGEIFKFEAPGCVTRYLSSQRLIKEACDESRFDKNLSQALKFFRDFSGDGLFTSWTHEINWKKAHNILLPSFSQQAMKGYHAMMVDIAVQLVQKWERLNADEHIEVSEDMTRLTLDTIGLCGFNYRFNSFYRDQPHPFIISMVRALDEVMNKLQRANPDDPAYDENKRQCQEDIKVMNDLVDKIIADRKARGEQSDDLLTQMLNGKDPETGEPLDDGNISYQIITFLIAGHETTSGLLSFALYFLVKNPHVLQKVVEEAARVLVDPVPSYKQVKQLKYVGMVLNEALRLWPTFPAFSLYAKEDTVLGGEYPLEKGDEVMVLIPQLHRDKTIWGDDVEEFRPERFENPSAIPQHAFKPFGNGQRACIGQQFALHEATLVLGMMLKHFDFEDHTNYELDIKETLTLKPEGFVVKAKSKKIPLGGIPSPSTGQSAKKVRKKAENAHNTPLLVLYGSNMGTAEGTARDLADIAMSKGFAPQVATLDSHAGNLPREGAVLIVTASYNGHPPDNAKQFVDWLDQASADEVKGVRYSVFGCGDKNWATTYQKVPAFIDETLAAKGAENIADRGEADASDDFEGTYEEWREHMWSDVAAYFNLDIENSEDNKSTLSLQFVDSAADMPLAKMHGAFSTNVVASKELQQPGSARSTRHLEIELPKEASYQEGDHLGVIPRNYEGTVNRVTARFGLDASQQIRLEAEEEKLAHLPLAKTVSVEELLQYVELQDPVTRTQLRAMAAKTVCPPHKVELEALLEKQAYKEQVLAKRLTMLELLEKYPACEMKFSEFIALLPSIRPRYYSISSSPRVDEKQASITVSVVSGEAWSGYGEYKGIASNYLAELQEGDTITCFISTPQSEFTLPKDPETPLIMVGPGTGVAPFRGFVQARKQLKEQGQSLGEAHLYFGCRSPHEDYLYQEELENAQSEGIITLHTAFSRMPNQPKTYVQHVMEQDGKKLIELLDQGAHFYICGDGSQMAPAVEATLMKSYADVHQVSEADARLWLQQLEEKGRYAKDVWAG
modifications: mutant P450 35-E11 protein sequence
For B2, in series [1], the TTN is recorded as 5150 ± 104. In addition, in series [2], the “% rel. act.” value is on record as 100.0% and the TTN amounted to 6350 ± 384. Moreover, the kcat in series [3] was 10.6 ± 1.38 s⁻¹. Besides, the Km in series [3] (read-out: Km) was found to be 200 ± 46 µM.

B3: P450PMO: P450 BM-3 variant, SEQ ID NO:125; 7-7 plus G443A and D698G; propane monooxygenase (protein)
chain: B2 chain with L52I, A74E, S82G, L188P, I366V, G443A, D698G
modifications: Mutant P450PMO protein sequence
notes: 7-7 plus G443A and D698G; propane monooxygenase
In the case of B3, the “% rel. act.” value was 30.2% in series [1] and 12.7% in series [2]. The figures for the TTN in series [1] and in series [2] were 6200 ± 400 and 2600 ± 205, respectively. Also, the “drop in activity when a single methylene unit is added to the substrate” value in series [1] (relative to propane) amounted to 90%. Moreover, in series [3], the catalytic constant (kcat) amounted to 0.533 ± 0.083 s⁻¹. Further, in series [3] (read-out: Km), the Michaelis constant (Km) was determined as 190 ± 40 µM.
